# In patent publication US6569430:
# Legend:
# [1] = target: Campath-1 antigen (partially purified, obtained from a glycolipid extract from human spleen) (human) (UniProt P31358); assay: cell-based or functional assay
# [2] = target: Campath-1 antigen (partially purified, obtained from a glycolipid extract from human spleen) (human) (UniProt P31358); assay: direct binding ELISA, partially purified Campath-1 antigen coated on wells, detected with biotin anti-rat IgG2b; antibody concentration at 50% maximal binding
Concentration of antibody in ug/ml at 50% lysis (complement lysis of human lymphocytes with human serum) [1] [µg/mL],EC50 [2] [µg/mL],Substance
17.6,2,"HuVHCAMP(Ser27 to Phe, Ser30 to Thr)-RaIgG2B with rat kappa light chain of YTH 34.5HL (antibody)"
16.3,1.8,HuVHCAMP(Ser27 to Phe)-RaIgG2B with rat kappa light chain of YTH 34.5HL (antibody)
,27.3,HuVHCAMP-RaIgG2B with rat kappa light chain of YTH 34.5HL (antibody)
